Measurements reported in paper PMC7002338.

Test system: CgpS (Corynebacterium glutamicum ATCC 13032 (strain of the protein implied?))
Assay: SPR
Settings: SPR: biotinylated DNA on streptavidin chip, CgpS 180 s association, 420 s dissociation, EMSA: 14 nM DNA, buffer, salt, pH and temperature in Text S1, not in …

Question: Pcg1999 was tested. Which Kd did it give?
Answer: The Kd was 58 nM.

Question: Pcg3336 (control) was tested. Which Kd (very fast dissociation) did it give?
Answer: Its Kd is 381 nM.

Question: For Plys (SPR), which Kd is on record?
Answer: Its Kd is 11 nM.
